Patent US20210061908A1 (IOMX THERAPEUTICS, published 2021)

Tests used:
[1] = biological target: T1, extracellular domain (ECD) of human IGSF11 (VSIG3), HIS-tagged (human, UniProt Q5DX21 23-241, biotinylated in the ELISA of Example 4 (site not stated)); experiment: ELISA: IGSF11-HIS coated, IgG1 antibody titrated, anti-human antibody-HRP and TMB; X-axis nM and Y-axis absorbance per legend paragraph 30
T1 construct: also called HIS-IGSF11; IGSF11-HIS; not shown: HIS6 tag
T1 sequence: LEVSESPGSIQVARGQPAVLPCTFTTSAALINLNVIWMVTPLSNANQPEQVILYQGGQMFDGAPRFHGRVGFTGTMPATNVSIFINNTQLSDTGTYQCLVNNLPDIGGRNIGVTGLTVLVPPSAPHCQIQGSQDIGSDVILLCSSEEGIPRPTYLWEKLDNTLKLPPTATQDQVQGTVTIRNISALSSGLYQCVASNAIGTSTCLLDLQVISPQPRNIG

[2] = biological target: T1, extracellular domain (ECD) of human …; experiment: blocking ELISA (Example 5): IgG titrated and pre-incubated with 200 nM his-tagged IGSF11 ECD, complexes added to immobilised VSIR-Fc, bound IGSF11 detected with anti-hexahistidine-HRP; blocked ligand: VSIR-Fc

EC50 (read off the curve) [1]: ~0.02 nM
IC50 (read off the curve) [2]: ~5 nM
B1: B-006 (chain-swapped, human IgG1 format) (antibody, V domains shown)
VH: EVQLVESGGGLIQPGGSLRLSCAASGFTVSSNYMSWVRQAPGKGLEWVSVIYSGGSTYYADSVKGRFTISRDNSKNTLYLQMNSLRAEDTAVYYCARGNPYYYGDLQVNFDYWGQGTLVTVSS
VL: QAVVTQEPSLTVSPGETVTLTCASSTGAVTSGYYPNWFQQRPGQAPRALIYSTSNKDSWTPARFSGSLLGGKAALTLSGVQPEDEAEYYCLLYYGGAWVFGGGTKLTVL
notes: VH of A-006 with VL of A-005; IgG1 format; also called B6; Chains-B-006
